Experimental data: the supplement of paper PMC10126150
± gives the standard deviation of the averaged measurements.

Tested on: ATP
Experiment: switch fluorescence ratio, 500 uM ATP over buffer (Cy3 cluster intensity, sum of 5 cycles each) (fold (ratio)); higher = stronger signal-on switching upon ATP binding; sequences stand for … in TCGTCGGCAGCGTCAGATGTGTATAAGAGACAGTTTTTTTTTTTTTTTTTTTTTTTTT…TC
Details: aptamer strand: ATP DNA aptamer (quencher-CACCTGGGGGAGTATTGCGGAGGAAGG + anchor), 100 nM annealed; ATP concentration: 500 uM
Summary of the method: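 Five buffer/ATP imaging cycles were run on Cy3-labelled switching-strand clusters on a modified Illumina MiSeq flow-cell, with NaOH stripping and re-annealing between cycles. In each cycle, clusters annealed to 100 nM quencher-labelled ATP aptamer were imaged in selection buffer, then after 15 min with 500 uM ATP at 22 °C. Per cluster, the fluorescence ratio is summed target-cycle over summed buffer-cycle Cy3 intensity, averaged per switch-domain sequence. Only clusters within 100-1000 RFU were kept.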
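Further: ATP exposure 15 min at 22 °C before imaging.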

**Q.** ACCGCGGGGG was tested. Which switch fluorescence ratio did it give?
**A.** 1.03 ± 0.034

**Q.** Which switch fluorescence ratio does the source give for AATATCGGGT here?
**A.** 0.97 ± 0.019

**Q.** With ATACTACGGA as the sequence, how does the switch fluorescence ratio read?
**A.** 1.03 ± 0.062

**Q.** Which switch fluorescence ratio does the source give for GTCTAACGCG here?
**A.** 0.9698 ± 0.0072

**Q.** Which switch fluorescence ratio does the source give for ATCATGCGGC here?
**A.** 0.983 ± 0.014

**Q.** How did the switch fluorescence ratio turn out when GTGAGGGATA was run?
**A.** 0.984 ± 0.043

**Q.** For ACTTTATGCT, which switch fluorescence ratio is on record?
**A.** 1.01 ± 0.024

**Q.** TAAGTGGAC was tested. Which switch fluorescence ratio did it give?
**A.** 1.039 ± 0.0089

**Q.** Which switch fluorescence ratio does the source give for TCGTGCAACA here?
**A.** 0.983 ± 0.025

**Q.** How did the switch fluorescence ratio turn out when TTTTAAACAG was run?
**A.** 1.028 ± 0.0066

**Q.** Which switch fluorescence ratio does the source give for TTTAAGGGCC here?
**A.** 0.978 ± 0.036

**Q.** For AGAATTAACT, which switch fluorescence ratio is on record?
**A.** 0.998 ± 0.025

**Q.** For AATTATATCA, which switch fluorescence ratio is on record?
**A.** 1.01 ± 0.01

**Q.** With ACTGGCTGTT as the sequence, how does the switch fluorescence ratio read?
**A.** 1.03 ± 0.035

**Q.** For GACATGGGGA, which switch fluorescence ratio is on record?
**A.** 1.06 ± 0.015

**Q.** For TTTTGGGAGT, which switch fluorescence ratio is on record?
**A.** 1 ± 0.026

**Q.** With AGTTTATCGT as the sequence, how does the switch fluorescence ratio read?
**A.** 1.03 ± 0.043

**Q.** Which switch fluorescence ratio does the source give for TCACGTGGTT here?
**A.** 1.03 ± 0.016

**Q.** Which switch fluorescence ratio does the source give for GGAATCTAGT here?
**A.** 0.999 ± 0.018

**Q.** TTACGGAGGC was tested. Which switch fluorescence ratio did it give?
**A.** 1.0641 ± 5.8e-05

**Q.** For CAAAGACACA, which switch fluorescence ratio is on record?
**A.** 0.985 ± 0.012

**Q.** TTATAATGGT was tested. Which switch fluorescence ratio did it give?
**A.** 1.02 ± 0.062

**Q.** With GGGTATTAGC as the sequence, how does the switch fluorescence ratio read?
**A.** 0.982 ± 0.053

**Q.** With CATACACAGG as the sequence, how does the switch fluorescence ratio read?
**A.** 1.26 ± 0.078

**Q.** For TTACTCCTTT, which switch fluorescence ratio is on record?
**A.** 1 ± 0.017

**Q.** Which switch fluorescence ratio does the source give for AATTGGTCCT here?
**A.** 0.986 ± 0.041

**Q.** With TGGGCAGAGG as the sequence, how does the switch fluorescence ratio read?
**A.** 1.01 ± 0.024

**Q.** For TAAAGTGTGG, which switch fluorescence ratio is on record?
**A.** 0.992 ± 0.027

**Q.** For GGGGAGGACA, which switch fluorescence ratio is on record?
**A.** 1.04 ± 0.082

**Q.** How did the switch fluorescence ratio turn out when CCGGCTTACG was run?
**A.** 1.2 ± 0.1

**Q.** CCCGGGGTAT was tested. Which switch fluorescence ratio did it give?
**A.** 1.06 ± 0.057

**Q.** GGTTCGTTGG was tested. Which switch fluorescence ratio did it give?
**A.** 0.993 ± 0.013

**Q.** With TTAATATGTA as the sequence, how does the switch fluorescence ratio read?
**A.** 0.9897 ± 0.0074

**Q.** How did the switch fluorescence ratio turn out when TGTATGGGAG was run?
**A.** 0.968 ± 0.02

**Q.** For AAATGGGACT, which switch fluorescence ratio is on record?
**A.** 1.03 ± 0.026

**Q.** Which switch fluorescence ratio does the source give for GGAGGGTTTT here?
**A.** 1.01 ± 0.035

**Q.** How did the switch fluorescence ratio turn out when GGAAAAAATG was run?
**A.** 1 ± 0.048

**Q.** Which switch fluorescence ratio does the source give for TGCTGGATGA here?
**A.** 1 ± 0.047

**Q.** How did the switch fluorescence ratio turn out when GCGGAAGGTG was run?
**A.** 1.55 ± 0.032

**Q.** For TCTAATGGGC, which switch fluorescence ratio is on record?
**A.** 0.993 ± 0.05

**Q.** Which switch fluorescence ratio does the source give for AGGGTTGACT here?
**A.** 0.964 ± 0.012

**Q.** Which switch fluorescence ratio does the source give for TCGGTTTGGT here?
**A.** 1.01 ± 0.024

**Q.** With ACACGGGAAG as the sequence, how does the switch fluorescence ratio read?
**A.** 1.02 ± 0.011

**Q.** How did the switch fluorescence ratio turn out when CTGCTAGGCT was run?
**A.** 1.01 ± 0.028

**Q.** With CTTGAATGTC as the sequence, how does the switch fluorescence ratio read?
**A.** 1.05 ± 0.054

**Q.** Which switch fluorescence ratio does the source give for GGAGCCGGGC here?
**A.** 1.01 ± 0.013

**Q.** How did the switch fluorescence ratio turn out when CATTATGTTG was run?
**A.** 0.969 ± 0.036

**Q.** How did the switch fluorescence ratio turn out when TTACCTGGGG was run?
**A.** 1.03 ± 0.038

**Q.** TTGGAGGTGG was tested. Which switch fluorescence ratio did it give?
**A.** 0.959 ± 0.031

**Q.** Which switch fluorescence ratio does the source give for GAGAGCAAAT here?
**A.** 1.09 ± 0.048

**Q.** With ATCTATGGGT as the sequence, how does the switch fluorescence ratio read?
**A.** 0.987 ± 0.01

**Q.** Which switch fluorescence ratio does the source give for GGGGGTCCGC here?
**A.** 1.022 ± 0.0071

**Q.** How did the switch fluorescence ratio turn out when TTTAGGAAAG was run?
**A.** 1.05 ± 0.063

**Q.** Which switch fluorescence ratio does the source give for TTTAATAAGT here?
**A.** 0.9981 ± 0.0036

**Q.** For AGGATCTACT, which switch fluorescence ratio is on record?
**A.** 1.01 ± 0.021

**Q.** For GTTTTTCGGT, which switch fluorescence ratio is on record?
**A.** 0.981 ± 0.026

**Q.** Which switch fluorescence ratio does the source give for GGGGGATTCC here?
**A.** 1.02 ± 0.017

**Q.** AGCTGATTTT was tested. Which switch fluorescence ratio did it give?
**A.** 0.982 ± 0.033

**Q.** For ACGACCATCG, which switch fluorescence ratio is on record?
**A.** 1.01 ± 0.02

**Q.** With CAGCGTTGTT as the sequence, how does the switch fluorescence ratio read?
**A.** 0.993 ± 0.018

**Q.** With GTGTGAACGG as the sequence, how does the switch fluorescence ratio read?
**A.** 0.958 ± 0.018

**Q.** For CACAAAATAG, which switch fluorescence ratio is on record?
**A.** 1.45 ± 0.49

**Q.** With GCGGGGGAGG as the sequence, how does the switch fluorescence ratio read?
**A.** 0.993 ± 0.029

**Q.** How did the switch fluorescence ratio turn out when AATAGAGGAT was run?
**A.** 0.971 ± 0.039

**Q.** How did the switch fluorescence ratio turn out when CAGAAGCCTG was run?
**A.** 1.014 ± 0.0028

**Q.** How did the switch fluorescence ratio turn out when TTTGGGTTAT was run?
**A.** 1.08 ± 0.21

**Q.** For GATTTTCCAT, which switch fluorescence ratio is on record?
**A.** 1.03 ± 0.021

**Q.** With TTTTTTGTAA as the sequence, how does the switch fluorescence ratio read?
**A.** 1.01 ± 0.036

**Q.** How did the switch fluorescence ratio turn out when TCGATGAGGG was run?
**A.** 1.02 ± 0.026

**Q.** Which switch fluorescence ratio does the source give for AAAACCAGTA here?
**A.** 1.01 ± 0.075

**Q.** How did the switch fluorescence ratio turn out when TTATTAGAGC was run?
**A.** 0.958 ± 0.085

**Q.** CACTGTAACC was tested. Which switch fluorescence ratio did it give?
**A.** 1.19 ± 0.072

**Q.** With GCAGGTCAAT as the sequence, how does the switch fluorescence ratio read?
**A.** 1.03 ± 0.018

**Q.** How did the switch fluorescence ratio turn out when TTGGAAGTTC was run?
**A.** 1 ± 0.019

**Q.** How did the switch fluorescence ratio turn out when ATGATTGGAT was run?
**A.** 0.996 ± 0.029

**Q.** GGAGGGGGGG was tested. Which switch fluorescence ratio did it give?
**A.** 1.02 ± 0.042

**Q.** For CGAGGGGATA, which switch fluorescence ratio is on record?
**A.** 1.04 ± 0.051
